Measured values taken from article PMC9949253.

Target: BTN3A1 full intracellular domain (BFI) (human)
Test: ITC; 300 μM BTN2A1 ID271 titrated into a mixture of 60 μM BTN3A1 BFI and 120 μM 4-M-HMBPP; nanoITC, independent fit (NanoAnalyze)

KD with 4-M-HMBPP: 190 µM
N with 4-M-HMBPP: 0.08
dH with 4-M-HMBPP: -23.9 kcal/mol
Substance: BTN2A1 intracellular domain (ID271) (domain or fragment)
